From PMC7145421

Biological target: PKR (endogenous) (UniProt Q03963)
Test: FLAG co-immunoprecipitation, western blot
Settings: reference: FLAG-WT PACT; sites S246

## PACT (FLAG-tagged wild type and mutant constructs) (from UniProt O75569) FLAG-S246A PACT
  binding against the reference: weaker
